# According to patent US5262318:
# System: SphI restriction endonuclease (recombinant, NEB#808 / pEGsph50-2; gene within SEQ ID NO:2) (Streptomyces phaeochromogenes)
# Experiment: cleavage_in_vitro
# Settings: 150 units, 4 h, 37 C; nonspecific endonuclease control
substance,measurement,value
phiX174 RFI DNA,activity (% converted to RF II),< 25
